Data on one molecule can be found in paper PMC10873205 (2024).

The experiment concerns the target UBE2A (UniProt P49459 1-152). The experiment is described as follows: ITC. In general terms: In ITC the heat of successive injections is recorded.

B1: UBR4_(xtal) Ser4930Arg (domain or fragment)
chain: AIQHPGTQVLIGTDSIPNLHKLEQVSSDEGIGTLAENLLEALREHPDVNKKIDAARRETRAEKKRMAMAMRQKALGTLGMTTNEKGQVVTKTALLKQMEELIEEPGLTCCICREGYKFQPTKVLGIYTFTKRVALEEMENKPRKQQGYSTVSHFNIVHYDCHLAAVRLARGREEWESAALQNANTKCNGLLPVWGPHVPERAFATCLARHNTYLQECTGQREPTYQLNIHDIKLLFLRFAMEQSFSADTGGGGRESNIHLIPYIIHTVLYVLNTTRATSREEKNLQGFLEQPKEKWVESAFEVDGPYYFTVLALHILPPEQWRATRVEILRRLLVTSQARAVAPGGATRLTDKAVKDYSAYRSSLLFWALVDLIYNMFKKVPTSNTEGGWSCSLAEYIRHNDMPIYEAADKALKTFQEEFMPVETFSEFLDVAGLLSEITDPESFLKDLLNSVP
As usually defined, the Kd is the constant that tells how readily two partners part at equilibrium. B1 had a Kd of 1470 nM.
